# Reference: the supplement of paper PMC9112550, “Optimization of the antimicrobial peptide Bac7 by deep mutational scanning” (BMC Biology, 2022)
# Test system: Escherichia coli TOP10
# Experiment: shrunken log2 fold change of peptide-encoding DNA abundance (4.5 h post-induction vs induction); higher = less antimicrobial activity (less host growth inhibition)
# Conditions: time post-induction: 4.5 h; library: site-saturation at positions 5, 18, 19, 20
# 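Also: peptides expressed intracellularly from a pBAD plasmid library in pooled LB shake-flask culture, induced with 0.3% L-arabinose, DNA abundance read by NGS, three biological replicates, DESeq2 with apeglm shrinkage.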
row,Sequence,shrunken log2 fold change
1,RRIRWRPPRLPRPRPRPIDYPRP,-0.235
2,RRIRWRPPRLPRPRPRPIEAPRP,0.199
3,RRIRWRPPRLPRPRPRPIEPPRP,0.0341
4,RRIRWRPPRLPRPRPRPIESPRP,0.467
5,RRIRWRPPRLPRPRPRPIETPRP,0.0333
6,RRIRWRPPRLPRPRPRPIFHPRP,-0.101
7,RRIRWRPPRLPRPRPRPIFKPRP,0.0632
8,RRIRWRPPRLPRPRPRPIGEPRP,0.0833
9,RRIRWRPPRLPRPRPRPIHTPRP,-0.275
10,RRIRWRPPRLPRPRPRPIIIPRP,0.117
11,RRIRWRPPRLPRPRPRPIIRPRP,-0.00231
12,RRIRWRPPRLPRPRPRPIKEPRP,0.0169
13,RRIRWRPPRLPRPRPRPIKKPRP,-0.0218
14,RRIRWRPPRLPRPRPRPILCPRP,0.00316
15,RRIRWRPPRLPRPRPRPIMMPRP,-0.312
16,RRIRWRPPRLPRPRPRPIMTPRP,-0.00859
17,RRIRWRPPRLPRPRPRPINAPRP,0.252
18,RRIRWRPPRLPRPRPRPINHPRP,-0.914
19,RRIRWRPPRLPRPRPRPINLPRP,-0.748
20,RRIRWRPPRLPRPRPRPIPLPRP,-0.121
21,RRIRWRPPRLPRPRPRPIPYPRP,-0.031
22,RRIRWRPPRLPRPRPRPIQDPRP,0.0265

row,Sequence,shrunken log2 fold change
1,RRIRWRPPRLPRPRPRPIQFPRP,-0.0539
2,RRIRWRPPRLPRPRPRPIRCPRP,0.0257
3,RRIRWRPPRLPRPRPRPIRLPRP,-0.268
4,RRIRWRPPRLPRPRPRPIRTPRP,-0.228
5,RRIRWRPPRLPRPRPRPISAPRP,-0.0163
6,RRIRWRPPRLPRPRPRPISGPRP,-0.12
7,RRIRWRPPRLPRPRPRPITGPRP,0.047
8,RRIRWRPPRLPRPRPRPIVPPRP,0.138
9,RRIRWRPPRLPRPRPRPIVWPRP,-0.0161
10,RRIRWRPPRLPRPRPRPIWAPRP,0.00581
11,RRIRWRPPRLPRPRPRPIWDPRP,0.214
12,RRIRWRPPRLPRPRPRPIYNPRP,-0.896
13,RRIRWRPPRLPRPRPRPKARPRP,0.836
14,RRIRWRPPRLPRPRPRPKCSPRP,0.0308
15,RRIRWRPPRLPRPRPRPKDDPRP,0.553
16,RRIRWRPPRLPRPRPRPKERPRP,0.0355
17,RRIRWRPPRLPRPRPRPKESPRP,0.293
18,RRIRWRPPRLPRPRPRPKFCPRP,-0.116
19,RRIRWRPPRLPRPRPRPKFMPRP,-0.0525
20,RRIRWRPPRLPRPRPRPKIAPRP,0.41
21,RRIRWRPPRLPRPRPRPKIQPRP,0.21
22,RRIRWRPPRLPRPRPRPKLYPRP,0.113

row,Sequence,shrunken log2 fold change
1,RRIRWRPPRLPRPRPRPKNEPRP,0.177
2,RRIRWRPPRLPRPRPRPKNKPRP,0.107
3,RRIRWRPPRLPRPRPRPKNRPRP,0.017
4,RRIRWRPPRLPRPRPRPKNTPRP,-0.127
5,RRIRWRPPRLPRPRPRPKPFPRP,0.323
6,RRIRWRPPRLPRPRPRPKPSPRP,0.512
7,RRIRWRPPRLPRPRPRPKQEPRP,0.0489
8,RRIRWRPPRLPRPRPRPKQFPRP,0.207
9,RRIRWRPPRLPRPRPRPKRCPRP,0.0577
10,RRIRWRPPRLPRPRPRPKTFPRP,-0.0777
11,RRIRWRPPRLPRPRPRPKTYPRP,-0.421
12,RRIRWRPPRLPRPRPRPKVKPRP,0.49
13,RRIRWRPPRLPRPRPRPKWLPRP,0.19
14,RRIRWRPPRLPRPRPRPKWSPRP,0.272
15,RRIRWRPPRLPRPRPRPKYAPRP,-0.0417
16,RRIRWRPPRLPRPRPRPKYDPRP,-0.449
17,RRIRWRPPRLPRPRPRPKYRPRP,0.00658
18,RRIRWRPPRLPRPRPRPKYYPRP,-0.84
19,RRIRWRPPRLPRPRPRPLARPRP,0.432
20,RRIRWRPPRLPRPRPRPLCCPRP,0.0117
21,RRIRWRPPRLPRPRPRPLCEPRP,0.337
22,RRIRWRPPRLPRPRPRPLCKPRP,0.116

row,Sequence,shrunken log2 fold change
1,RRIRWRPPRLPRPRPRPLDNPRP,-0.23
2,RRIRWRPPRLPRPRPRPLDTPRP,0.0244
3,RRIRWRPPRLPRPRPRPLHFPRP,0.136
4,RRIRWRPPRLPRPRPRPLIDPRP,0.00313
5,RRIRWRPPRLPRPRPRPLIRPRP,-0.117
6,RRIRWRPPRLPRPRPRPLKIPRP,-0.195
7,RRIRWRPPRLPRPRPRPLLIPRP,0.0213
8,RRIRWRPPRLPRPRPRPLQFPRP,0.0403
9,RRIRWRPPRLPRPRPRPLQHPRP,0.394
10,RRIRWRPPRLPRPRPRPLRQPRP,0.539
11,RRIRWRPPRLPRPRPRPLRSPRP,0.884
12,RRIRWRPPRLPRPRPRPLRVPRP,0.874
13,RRIRWRPPRLPRPRPRPLRWPRP,1.08
14,RRIRWRPPRLPRPRPRPLSAPRP,0.553
15,RRIRWRPPRLPRPRPRPLSGPRP,0.34
16,RRIRWRPPRLPRPRPRPLSVPRP,0.0836
17,RRIRWRPPRLPRPRPRPLTGPRP,-0.396
18,RRIRWRPPRLPRPRPRPLTTPRP,0.235
19,RRIRWRPPRLPRPRPRPLVCPRP,0.476
20,RRIRWRPPRLPRPRPRPLVDPRP,0.0816
21,RRIRWRPPRLPRPRPRPLVHPRP,-0.11
22,RRIRWRPPRLPRPRPRPLVIPRP,-0.0698

row,Sequence,shrunken log2 fold change
1,RRIRWRPPRLPRPRPRPLWTPRP,0.0621
2,RRIRWRPPRLPRPRPRPLYDPRP,-0.0701
3,RRIRWRPPRLPRPRPRPMDKPRP,-0.194
4,RRIRWRPPRLPRPRPRPMDQPRP,-0.131
5,RRIRWRPPRLPRPRPRPMFQPRP,-0.241
6,RRIRWRPPRLPRPRPRPMFTPRP,-0.0283
7,RRIRWRPPRLPRPRPRPMHCPRP,-0.0635
8,RRIRWRPPRLPRPRPRPMHSPRP,-0.0572
9,RRIRWRPPRLPRPRPRPMKAPRP,0.294
10,RRIRWRPPRLPRPRPRPMMDPRP,0.000475
11,RRIRWRPPRLPRPRPRPMNVPRP,0.0542
12,RRIRWRPPRLPRPRPRPMNWPRP,0.0484
13,RRIRWRPPRLPRPRPRPMPKPRP,0.115
14,RRIRWRPPRLPRPRPRPMSEPRP,0.0832
15,RRIRWRPPRLPRPRPRPMSWPRP,0.0971
16,RRIRWRPPRLPRPRPRPMWKPRP,-0.0109
17,RRIRWRPPRLPRPRPRPNACPRP,0.478
18,RRIRWRPPRLPRPRPRPNATPRP,0.736
19,RRIRWRPPRLPRPRPRPNDKPRP,-0.291
20,RRIRWRPPRLPRPRPRPNEDPRP,0.211
21,RRIRWRPPRLPRPRPRPNFKPRP,-0.264
